Biological target: Andes virus Gc, wild type (Andes virus strain CHI-7913)
Assay: sucrose gradient sedimentation

“Andes virus Gc, wild type (natural protein)” gave a stoichiometry N of 3.
